{"source": "paper PMC12910678", "about": "(Nature, 2021)", "binders": {"B1": {"name": "C121 IgG (antibody, V domains shown)", "VH": "not shown", "VL": "QSALTQPASVSGSPGQSITISCTGTSSDVGSYNLVSWYQQHPGKAPKLMIYEGSKRPSGVSNRFSGSKSGNTASLTISGLQAEDEADYYCCSYAGSSTLVFGGGTKLTVL"}}, "molecular_target": "SARS-CoV-2 RBD (residues 319-591) (SARS-CoV-2, Wuhan-Hu-1 (MN908947), UniProt P0DTC2)", "experiment": "SPR", "data": [{"binder": "B1", "values": [{"measurement": "binding result", "result": "binds"}]}]}
